± gives the standard error. For some of these results: Fewer inactive variants are shown than the library holds.
B1: glmS ribozyme (parent)
chain: AUAAAAGCGCCAGAACUACAGAAAUGUAGUUGACGAGGAGGAGGUUUAUCGAAUUUUCGGCGGAUGCCUCCAAA

What was measured:
Details in all cases: with glucosamine-6-phosphate
glucosamine-6-phosphate [1] = variants of: B1; test: kcat; higher = faster cleavage; RNA array
Method in brief: (§1)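 A hybridised Cy3 probe tracked barcoded ribozyme variants, transcribed in situ by E. coli RNA polymerase on sequenced MiSeq chips, at 37 °C. The variants received 40 μM to 10 mM glucosamine-6-phosphate in HEPES/KCl/Mg(OAc)2 buffer. kobs came from decay fits and kcat and KM from weighted Michaelis–Menten fits.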

glucosamine-6-phosphate [2] = variants of: B1; test: KM; higher = weaker cofactor use; RNA array
Method in brief: as §1

glucosamine-6-phosphate [3] = variants of: B1; test: self-cleavage kobs at 640 uM GlcN6P; higher = faster cleavage; RNA array
Method in brief: as §1

glucosamine-6-phosphate [4] = variants of: B1; test: self-cleavage kobs at 2500 uM GlcN6P; higher = faster cleavage; RNA array
Method in brief: as §1

glucosamine-6-phosphate [5] = variants of: B1; test: self-cleavage kobs at 10000 uM GlcN6P; higher = faster cleavage; RNA array
Method in brief: as §1

glucosamine-6-phosphate [6] = variants of: B1; test: self-cleavage kobs at 160 uM GlcN6P; higher = faster cleavage; RNA array
Method in brief: as §1

glucosamine-6-phosphate [7] = variants of: B1; test: self-cleavage kobs at 40 uM GlcN6P; higher = faster cleavage; RNA array
Method in brief: as §1

| Variant | kcat (glucosamine-6-phosphate [1]) [s⁻¹] | KM (glucosamine-6-phosphate [2]) [µM] | self-cleavage kobs at 640 uM GlcN6P (glucosamine-6-phosphate [3]) [s⁻¹] | self-cleavage kobs at 2500 uM GlcN6P (glucosamine-6-phosphate [4]) [s⁻¹] | self-cleavage kobs at 10000 uM GlcN6P (glucosamine-6-phosphate [5]) [s⁻¹] | self-cleavage kobs at 160 uM GlcN6P (glucosamine-6-phosphate [6]) [s⁻¹] | self-cleavage kobs at 40 uM GlcN6P (glucosamine-6-phosphate [7]) [s⁻¹] |
| --- | --- | --- | --- | --- | --- | --- | --- |
| A6U U56G | 0.000121 ± 1.2e-05 | 1090 ± 430 | 3.35e-05 ± 1.5e-05 | 9.43e-05 ± 1.2e-05 | 0.000104 ± 1.1e-05 |  |  |
| A6U U56A | 0.000103 ± 7e-06 | 1590 ± 350 | 3.39e-05 ± 1e-05 | 5.83e-05 ± 9e-06 | 9.06e-05 ± 9.5e-06 |  |  |
| C10U G66A | 1.5e-05 ± 2.3e-06 |  |  |  |  |  |  |
| C10U G66U | < 1e-05 |  | < 1e-05 |  | < 1e-05 | < 1e-05 |  |
| C10A A12U C71U | 1.55e-05 ± 6.5e-07 | 21.5 ± 9.2 |  |  |  |  |  |
| G7A C70U | 6.43e-05 ± 1.1e-05 | 5580 ± 2200 |  |  | 4.14e-05 ± 7.5e-06 |  |  |
| A6G U30A | 5.86e-05 ± 1.4e-05 |  |  | 3.73e-05 ± 1e-05 | 4.4e-05 ± 1.9e-05 |  |  |
| C10U U47A | 2.05e-05 ± 1.2e-06 | 300 ± 150 |  |  |  | < 1e-05 | < 1e-05 |
| C11U C58A | 5.6e-05 ± 2e-06 | 753 ± 170 |  | 4.48e-05 ± 1.1e-05 | 5.15e-05 ± 8.2e-06 |  |  |
| G7U C10U G37A C67A | 3.55e-05 ± 1.6e-05 |  |  |  |  |  |  |
| C11U A39U | 0.00145 ± 0.00027 | 3780 ± 1200 | 0.000277 ± 4.8e-05 | 0.000641 ± 0.00011 | 0.00102 ± 0.00011 | 4.38e-05 ± 1.1e-05 |  |
| C11U A39C | 0.000759 ± 0.00011 | 4650 ± 1100 | 8.75e-05 ± 1.3e-05 | 0.000299 ± 5e-05 | 0.00051 ± 5.5e-05 |  |  |
| C10A U30C A53G C67A | 1.94e-05 ± 4e-06 |  |  |  |  |  |  |
| A6U C58U C70G | 1.51e-05 ± 4.3e-06 |  |  |  |  |  |  |
| A6U C16G | 5.15e-05 ± 3.5e-06 | 3290 ± 720 |  | 2.28e-05 ± 1e-05 | 3.87e-05 ± 6.9e-06 |  |  |
| A6U C16U | 0.000238 ± 2.8e-05 | 1970 ± 520 | 6.36e-05 ± 7.9e-06 | 0.000118 ± 1.2e-05 | 0.00021 ± 1.7e-05 | 2.54e-05 ± 9.5e-06 |  |
| A6G U46G C68U | 3.96e-05 ± 1.9e-05 |  |  | 4.82e-05 ± 2.3e-05 |  |  |  |
| G7U C71G | 1.1e-05 ± 2.1e-06 |  |  |  |  | < 1e-05 |  |
| C11U C61U | < 1e-05 | 122 ± 8.2 | < 1e-05 |  | < 1e-05 |  | < 1e-05 |
| G9A U54C | 0.000246 ± 5.5e-05 |  |  |  | 3.34e-05 ± 1.3e-05 |  |  |
| C11A G29U | 3.97e-05 ± 4.4e-06 |  |  | 3.72e-05 ± 1.1e-05 | 3.56e-05 ± 8.9e-06 |  |  |
| C10A A39G | < 1e-05 |  | < 1e-05 |  |  | < 1e-05 |  |
| C10A G38A | < 1e-05 |  |  |  |  |  | < 1e-05 |

| Variant | kcat (glucosamine-6-phosphate [1]) [s⁻¹] | KM (glucosamine-6-phosphate [2]) [µM] | self-cleavage kobs at 640 uM GlcN6P (glucosamine-6-phosphate [3]) [s⁻¹] | self-cleavage kobs at 2500 uM GlcN6P (glucosamine-6-phosphate [4]) [s⁻¹] | self-cleavage kobs at 10000 uM GlcN6P (glucosamine-6-phosphate [5]) [s⁻¹] | self-cleavage kobs at 160 uM GlcN6P (glucosamine-6-phosphate [6]) [s⁻¹] | self-cleavage kobs at 40 uM GlcN6P (glucosamine-6-phosphate [7]) [s⁻¹] |
| --- | --- | --- | --- | --- | --- | --- | --- |
| C10U G35A | 1.32e-05 ± 1.8e-06 |  |  |  | < 1e-05 |  |  |
| A6U C71A | 5.43e-05 ± 1.1e-06 | 1730 ± 140 |  | 3.22e-05 ± 1.3e-05 | 4.63e-05 ± 1.1e-05 |  |  |
| A6U C71G | 3.27e-05 ± 8.4e-06 |  | 5.72e-05 ± 1.3e-05 | 2.85e-05 ± 1e-05 | 2.69e-05 ± 8e-06 |  |  |
| C11A A12G | 0.000158 ± 1.7e-05 | 3020 ± 720 | 2.43e-05 ± 1.1e-05 | 8.06e-05 ± 2.3e-05 | 0.000119 ± 2.5e-05 |  |  |
| G7A | 4.39e-05 ± 1.2e-06 | 4040 ± 350 |  | 1.71e-05 ± 2.6e-06 | 3.13e-05 ± 1.1e-06 |  |  |
| C10U C67A | 1.13e-05 ± 2.7e-06 |  |  |  |  |  |  |
| C11A U54A | 0.000163 ± 1.3e-05 | 1490 ± 400 | 5.49e-05 ± 1.4e-05 | 9.05e-05 ± 1.9e-05 | 0.000145 ± 1.4e-05 |  |  |
| C8G C61A | < 1e-05 |  |  | < 1e-05 |  | < 1e-05 | < 1e-05 |
| C10A A14U G59U C71G | 1.42e-05 ± 3.8e-06 |  |  |  |  |  |  |
| G7U G38C | < 1e-05 |  | < 1e-05 |  | < 1e-05 |  | < 1e-05 |
| G7A G32A C50G | 4.21e-05 ± 1.3e-05 |  |  | 6.89e-05 ± 2.8e-05 |  | 4.85e-05 ± 1.9e-05 | 4.2e-05 ± 1.6e-05 |
| C11G C67G C70G | 5.32e-05 ± 2.1e-05 |  | 8.18e-05 ± 2.2e-05 |  |  |  |  |
| C11A C50A | 1.11e-05 ± 3.1e-06 |  |  |  |  |  |  |
| A6U U30G | 4.09e-05 ± 8.6e-06 |  |  | 4.14e-05 ± 1.3e-05 | 3.5e-05 ± 9.7e-06 |  | < 1e-05 |
| A6U U30A | 3.27e-05 ± 4.2e-06 |  |  |  | 2.86e-05 ± 1e-05 | < 1e-05 | < 1e-05 |
| C8G G37U | < 1e-05 |  |  |  |  | < 1e-05 |  |
| A6G U56G U69G | 1.41e-05 ± 3e-06 |  |  |  |  |  |  |
| C11U A14U G38A C50U U65G | 2.42e-05 ± 9.7e-06 |  |  |  |  |  |  |
| A6U U49A | < 1e-05 |  |  |  | < 1e-05 | < 1e-05 |  |
| G7U A36C A48U | < 1e-05 |  | < 1e-05 |  |  |  |  |
| G7C C10G C67G | 1.87e-05 ± 2.3e-06 |  |  |  |  |  |  |
| G7U A52G C70G | 3.01e-05 ± 9.2e-06 |  |  |  |  |  |  |
| G7C A53G | < 1e-05 |  |  |  | < 1e-05 |  |  |
